Source: PMC10397247
Values belong to the binder of their own block, whether it stands above or below them.

Tests used:
[1] = target: T1, 4H2839-bN; assay: two-hybrid library CCNG1;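 note: natural log of median RNA to DNA barcode read ratio; higher means stronger binding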
T1 chain: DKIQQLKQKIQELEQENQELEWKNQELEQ

[2] = target: T2, 4H348-bN; assay: two-hybrid library CCNG1;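 note: natural log of median RNA to DNA barcode read ratio; higher means stronger binding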
T2 chain: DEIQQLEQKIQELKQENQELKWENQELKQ

[3] = target: T3, 4H2692-bN; assay: two-hybrid library CCNG1;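 note: natural log of median RNA to DNA barcode read ratio; higher means stronger binding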
T3 chain: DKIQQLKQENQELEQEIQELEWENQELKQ

[4] = target: T4, 4H2588-bN; assay: two-hybrid library CCNG1;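 note: natural log of median RNA to DNA barcode read ratio; higher means stronger binding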
T4 chain: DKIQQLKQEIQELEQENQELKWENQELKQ

[5] = target: T5, 4H2717-bN; assay: two-hybrid library CCNG1;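 note: natural log of median RNA to DNA barcode read ratio; higher means stronger binding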
T5 chain: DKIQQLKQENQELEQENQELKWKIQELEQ

[6] = target: T6, 4H40-bN; assay: two-hybrid library CCNG1;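 note: natural log of median RNA to DNA barcode read ratio; higher means stronger binding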
T6 chain: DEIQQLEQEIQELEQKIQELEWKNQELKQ

[7] = target: T7, 4H3277-bN; assay: two-hybrid library CCNG1
T7 chain: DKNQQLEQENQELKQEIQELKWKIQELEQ

[8] = target: T8, 4H3057-bN; assay: two-hybrid library CCNG1
T8 chain: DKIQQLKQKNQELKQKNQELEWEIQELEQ

[9] = target: T9, 4H2503-bN; assay: two-hybrid library CCNG1
T9 chain: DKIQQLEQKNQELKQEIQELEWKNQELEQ

[10] = target: T10, 4H2473-bN; assay: two-hybrid library CCNG1
T10 chain: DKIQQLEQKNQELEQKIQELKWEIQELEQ

[11] = target: T11, 4H319-bN; assay: two-hybrid library CCNG1
T11 chain: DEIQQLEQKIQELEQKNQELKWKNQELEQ

[12] = target: T12, 4H741-bN; assay: two-hybrid library CCNG1
T12 chain: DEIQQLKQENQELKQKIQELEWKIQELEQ

[13] = target: T13, 4H492-bN; assay: two-hybrid library CCNG1
T13 chain: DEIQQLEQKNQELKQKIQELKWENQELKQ

[14] = target: T14, 4H2673-bH; assay: two-hybrid library CCNG1
T14 chain: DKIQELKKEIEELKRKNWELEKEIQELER

[15] = target: T15, 4H477-bN; assay: two-hybrid library CCNG1
T15 chain: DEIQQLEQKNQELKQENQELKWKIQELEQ

[16] = target: T16, 4H2915-bN; assay: two-hybrid library CCNG1
T16 chain: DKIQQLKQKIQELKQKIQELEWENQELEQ

[17] = target: T17, 4H3330-AA; assay: two-hybrid library CCmax
T17 chain: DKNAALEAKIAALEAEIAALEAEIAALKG

[18] = target: T18, APC8910-AA; assay: two-hybrid library CCmax
T18 chain: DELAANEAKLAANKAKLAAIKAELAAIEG

[19] = target: T19, APC1015-AA; assay: two-hybrid library CCmax; settings: mean of both orientations
T19 chain: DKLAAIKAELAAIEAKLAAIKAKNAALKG

[20] = target: T20, 4H733-AA; assay: two-hybrid library CCmax; settings: mean of both orientations
T20 chain: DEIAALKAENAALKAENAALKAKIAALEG

[21] = target: T21, APC4436-AA; assay: two-hybrid library CCmax; settings: mean of both orientations
T21 chain: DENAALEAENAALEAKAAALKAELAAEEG

[22] = target: T22, APC4264-AA; assay: two-hybrid library CCmax; settings: mean of both orientations
T22 chain: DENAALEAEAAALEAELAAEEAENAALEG

[23] = target: T23, APC232-AA; assay: two-hybrid library CCmax; settings: mean of both orientations
T23 chain: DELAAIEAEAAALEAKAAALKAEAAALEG

[24] = target: T24, APC9096-AA; assay: two-hybrid library CCmax; settings: mean of both orientations
T24 chain: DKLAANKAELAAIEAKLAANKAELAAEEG

[25] = target: T25, APC4011-AA; assay: two-hybrid library CCmax; settings: mean of both orientations
T25 chain: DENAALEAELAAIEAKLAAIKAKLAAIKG

[26] = target: T26, 4H807-AA; assay: two-hybrid library CCmax; settings: mean of both orientations
T26 chain: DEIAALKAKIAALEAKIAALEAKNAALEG

[27] = target: T27, APC2237-AA; assay: two-hybrid library CCmax; settings: mean of both orientations
T27 chain: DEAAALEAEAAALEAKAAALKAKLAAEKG

[28] = target: T28, APC3645-AA; assay: two-hybrid library CCmax; settings: mean of both orientations
T28 chain: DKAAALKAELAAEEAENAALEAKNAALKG

[29] = target: T29, APC8191-AA; assay: two-hybrid library CCmax; settings: mean of both orientations
T29 chain: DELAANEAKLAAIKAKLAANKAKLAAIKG

[30] = target: T30, APC7099-AA; assay: two-hybrid library CCmax; settings: mean of both orientations
T30 chain: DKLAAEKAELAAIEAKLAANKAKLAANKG

[31] = target: T31, APC1434-AA; assay: two-hybrid library CCmax; settings: mean of both orientations
T31 chain: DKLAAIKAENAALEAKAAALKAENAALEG

[32] = target: T32, APC9319-AA; assay: two-hybrid library CCmax; settings: mean of both orientations
T32 chain: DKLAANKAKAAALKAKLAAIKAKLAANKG

[33] = target: T33, APC2405-AA; assay: two-hybrid library CCmax; settings: mean of both orientations
T33 chain: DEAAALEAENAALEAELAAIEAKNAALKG

[34] = target: T34, APC6108-AA; assay: two-hybrid library CCmax; settings: mean of both orientations
T34 chain: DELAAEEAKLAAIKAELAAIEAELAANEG

[35] = target: T35, APC5383-AA; assay: two-hybrid library CCmax; settings: mean of both orientations
T35 chain: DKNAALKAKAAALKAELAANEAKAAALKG

[36] = target: T36, 4H716-AA; assay: two-hybrid library CCmax; settings: mean of both orientations
T36 chain: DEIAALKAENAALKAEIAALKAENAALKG

interaction score [1]: -1.21
interaction score [2]: -0.231
interaction score [3]: -0.666
interaction score [4]: -1.58
interaction score [5]: -2.13
interaction score [6]: -0.598
interaction score [7]: -1.47
interaction score [8]: -0.442
interaction score [9]: -1.11
interaction score [10]: 0.273
interaction score [11]: -0.961
interaction score [12]: -1.72
interaction score [13]: -0.992
interaction score [14]: 0.46
interaction score [15]: -0.81
interaction score [16]: 0.258
Binder: DKIQQLEQKNQELEQKIQELKWEIQELEQ [4H2473-bN]

interaction score [17]: 1.32
interaction score [18]: -0.0896
interaction score [19]: -0.658
interaction score [20]: -1.48
interaction score [21]: -1.42
interaction score [22]: -1.37
interaction score [23]: -1.1
interaction score [24]: -1.65
interaction score [25]: 2.04
interaction score [26]: -1.35
interaction score [27]: -0.433
interaction score [28]: -1.25
interaction score [29]: 1.43
interaction score [30]: -1.98
interaction score [31]: -1.62
interaction score [32]: 0.302
interaction score [33]: -1.07
interaction score [34]: 0.0413
interaction score [35]: -1.16
interaction score [36]: -1.14
Binder: DKNAALEAKIAALEAEIAALEAEIAALKG [4H3330-AA]
